Results: patent publication US20140087995A1 (published 2014)
Numbered stars: 1 amine (or outer) side, 2 acyl side, 3 side chain; on linkers, the order of the positions; unused ones are H or OH. Bridge positions count the residues as written; N and C are the ends. Square brackets hold non-standard residues; d marks the D form. Side chains are listed from the residue outwards. Ends that are not written are not given here. * marks the point of attachment. C20 diacid = O=C(O)CCCCCCCCCCCCCCCCCCC(=O)*; γGlu = O=C(O)[C@H](CCC(=O)[*:2])N[*:1]

T1: human calcitonin receptor (human, UniProt P30988 25-474)
T1 sequence (looked up): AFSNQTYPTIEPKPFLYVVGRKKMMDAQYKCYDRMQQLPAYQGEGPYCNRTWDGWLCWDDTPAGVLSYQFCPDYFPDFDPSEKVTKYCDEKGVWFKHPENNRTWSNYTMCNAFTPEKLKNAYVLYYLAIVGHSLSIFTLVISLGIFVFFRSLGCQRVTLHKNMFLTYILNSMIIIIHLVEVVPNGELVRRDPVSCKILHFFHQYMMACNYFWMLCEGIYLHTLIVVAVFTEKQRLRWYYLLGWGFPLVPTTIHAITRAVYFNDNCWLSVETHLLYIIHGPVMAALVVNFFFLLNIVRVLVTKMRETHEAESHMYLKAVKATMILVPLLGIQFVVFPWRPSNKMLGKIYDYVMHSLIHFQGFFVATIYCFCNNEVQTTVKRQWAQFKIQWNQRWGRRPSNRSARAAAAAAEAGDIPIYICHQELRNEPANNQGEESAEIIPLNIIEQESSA

T2: human amylin receptor (amylin 3(a) receptor: human calcitonin receptor with RAMP-3) (human, UniProt P30988 25-474; O60896 24-148, limits assumed)
T2 construct: whole, on cells; Whole cells in the luciferase assay (Assay II a); also called hAmylin-R; hAmylinR
T2 sequence (looked up) 1: T1 sequence (looked up)
T2 sequence (looked up) 2: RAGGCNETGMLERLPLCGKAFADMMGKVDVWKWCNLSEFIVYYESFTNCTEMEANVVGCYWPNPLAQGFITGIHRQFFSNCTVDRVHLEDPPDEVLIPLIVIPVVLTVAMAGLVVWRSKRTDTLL

B1: N^ε1-[(4S)-4-carboxy-4-(19-carboxynonadecanoylamino)butanoyl]-[Asp14,Arg17,Pro21,Pro27,Pro34,Arg35]-h-amylin (peptide)
peptide: K([γGlu-C20 diacid])CNTATCATQRLADFLRHSSPNFGAIPSSTNVGPRTY-NH2
modifications: disulfide 2-7; N-terminus assumed
SMILES: CC[C@H](C)[C@H](NC(=O)[C@H](C)NC(=O)CNC(=O)[C@H](Cc1ccccc1)NC(=O)[C@H](CC(N)=O)NC(=O)[C@@H]1CCCN1C(=O)[C@H](CO)NC(=O)[C@H](CO)NC(=O)[C@H](Cc1c[nH]cn1)NC(=O)[C@H](CCCNC(=N)N)NC(=O)[C@H](CC(C)C)NC(=O)[C@H](Cc1ccccc1)NC(=O)[C@H](CC(=O)O)NC(=O)[C@H](C)NC(=O)[C@H](CC(C)C)NC(=O)[C@H](CCCNC(=N)N)NC(=O)[C@H](CCC(N)=O)NC(=O)[C@@H](NC(=O)[C@H](C)NC(=O)[C@@H]1CSSC[C@H](NC(=O)[C@@H](N)CCCCNC(=O)CC[C@H](NC(=O)CCCCCCCCCCCCCCCCCCC(=O)O)C(=O)O)C(=O)N[C@@H](CC(N)=O)C(=O)N[C@@H]([C@@H](C)O)C(=O)N[C@@H](C)C(=O)N[C@@H]([C@@H](C)O)C(=O)N1)[C@@H](C)O)C(=O)N1CCC[C@H]1C(=O)N[C@@H](CO)C(=O)N[C@@H](CO)C(=O)N[C@H](C(=O)N[C@@H](CC(N)=O)C(=O)N[C@H](C(=O)NCC(=O)N1CCC[C@H]1C(=O)N[C@@H](CCCNC(=N)N)C(=O)N[C@H](C(=O)N[C@@H](Cc1ccc(O)cc1)C(N)=O)[C@@H](C)O)C(C)C)[C@@H](C)O
B2: N^ε1-[(4S)-4-carboxy-4-[[(4S)-4-carboxy-4-(19-carboxynonadecanoylamino)butanoyl]amino]butanoyl]-[Asp14,Arg17,Pro21,Pro27,Pro34,Arg35]-h-amylin (peptide)
peptide: K([γGlu-γGlu-C20 diacid])CNTATCATQRLADFLRHSSPNFGAIPSSTNVGPRTY-NH2
modifications: disulfide 2-7; N-terminus assumed
SMILES: CC[C@H](C)[C@H](NC(=O)[C@H](C)NC(=O)CNC(=O)[C@H](Cc1ccccc1)NC(=O)[C@H](CC(N)=O)NC(=O)[C@@H]1CCCN1C(=O)[C@H](CO)NC(=O)[C@H](CO)NC(=O)[C@H](Cc1c[nH]cn1)NC(=O)[C@H](CCCNC(=N)N)NC(=O)[C@H](CC(C)C)NC(=O)[C@H](Cc1ccccc1)NC(=O)[C@H](CC(=O)O)NC(=O)[C@H](C)NC(=O)[C@H](CC(C)C)NC(=O)[C@H](CCCNC(=N)N)NC(=O)[C@H](CCC(N)=O)NC(=O)[C@@H](NC(=O)[C@H](C)NC(=O)[C@@H]1CSSC[C@H](NC(=O)[C@@H](N)CCCCNC(=O)CC[C@H](NC(=O)CC[C@H](NC(=O)CCCCCCCCCCCCCCCCCCC(=O)O)C(=O)O)C(=O)O)C(=O)N[C@@H](CC(N)=O)C(=O)N[C@@H]([C@@H](C)O)C(=O)N[C@@H](C)C(=O)N[C@@H]([C@@H](C)O)C(=O)N1)[C@@H](C)O)C(=O)N1CCC[C@H]1C(=O)N[C@@H](CO)C(=O)N[C@@H](CO)C(=O)N[C@H](C(=O)N[C@@H](CC(N)=O)C(=O)N[C@H](C(=O)NCC(=O)N1CCC[C@H]1C(=O)N[C@@H](CCCNC(=N)N)C(=O)N[C@H](C(=O)N[C@@H](Cc1ccc(O)cc1)C(N)=O)[C@@H](C)O)C(C)C)[C@@H](C)O
notes: also called compound 130
B3: N^ε1-[(4S)-4-carboxy-4-(19-carboxynonadecanoylamino)butanoyl]-[Glu14,Arg17,Pro21,Pro27,Pro34,Arg35]-h-amylin (peptide)
peptide: K([γGlu-C20 diacid])CNTATCATQRLAEFLRHSSPNFGAIPSSTNVGPRTY-NH2
modifications: disulfide 2-7; N-terminus assumed
SMILES: CC[C@H](C)[C@H](NC(=O)[C@H](C)NC(=O)CNC(=O)[C@H](Cc1ccccc1)NC(=O)[C@H](CC(N)=O)NC(=O)[C@@H]1CCCN1C(=O)[C@H](CO)NC(=O)[C@H](CO)NC(=O)[C@H](Cc1c[nH]cn1)NC(=O)[C@H](CCCNC(=N)N)NC(=O)[C@H](CC(C)C)NC(=O)[C@H](Cc1ccccc1)NC(=O)[C@H](CCC(=O)O)NC(=O)[C@H](C)NC(=O)[C@H](CC(C)C)NC(=O)[C@H](CCCNC(=N)N)NC(=O)[C@H](CCC(N)=O)NC(=O)[C@@H](NC(=O)[C@H](C)NC(=O)[C@@H]1CSSC[C@H](NC(=O)[C@@H](N)CCCCNC(=O)CC[C@H](NC(=O)CCCCCCCCCCCCCCCCCCC(=O)O)C(=O)O)C(=O)N[C@@H](CC(N)=O)C(=O)N[C@@H]([C@@H](C)O)C(=O)N[C@@H](C)C(=O)N[C@@H]([C@@H](C)O)C(=O)N1)[C@@H](C)O)C(=O)N1CCC[C@H]1C(=O)N[C@@H](CO)C(=O)N[C@@H](CO)C(=O)N[C@H](C(=O)N[C@@H](CC(N)=O)C(=O)N[C@H](C(=O)NCC(=O)N1CCC[C@H]1C(=O)N[C@@H](CCCNC(=N)N)C(=O)N[C@H](C(=O)N[C@@H](Cc1ccc(O)cc1)C(N)=O)[C@@H](C)O)C(C)C)[C@@H](C)O
B4: N^ε1-[(4S)-4-carboxy-4-[[(4S)-4-carboxy-4-(19-carboxynonadecanoylamino)butanoyl]amino]butanoyl]-[D-Asp14,Arg17,Pro21,Pro27,Arg35]-h-amylin (peptide)
peptide: K([γGlu-γGlu-C20 diacid])CNTATCATQRLA[dD]FLRHSSPNFGAIPSSTNVGSRTY-NH2
modifications: disulfide 2-7; N-terminus assumed
SMILES: CC[C@H](C)[C@H](NC(=O)[C@H](C)NC(=O)CNC(=O)[C@H](Cc1ccccc1)NC(=O)[C@H](CC(N)=O)NC(=O)[C@@H]1CCCN1C(=O)[C@H](CO)NC(=O)[C@H](CO)NC(=O)[C@H](Cc1c[nH]cn1)NC(=O)[C@H](CCCNC(=N)N)NC(=O)[C@H](CC(C)C)NC(=O)[C@H](Cc1ccccc1)NC(=O)[C@@H](CC(=O)O)NC(=O)[C@H](C)NC(=O)[C@H](CC(C)C)NC(=O)[C@H](CCCNC(=N)N)NC(=O)[C@H](CCC(N)=O)NC(=O)[C@@H](NC(=O)[C@H](C)NC(=O)[C@@H]1CSSC[C@H](NC(=O)[C@@H](N)CCCCNC(=O)CC[C@H](NC(=O)CC[C@H](NC(=O)CCCCCCCCCCCCCCCCCCC(=O)O)C(=O)O)C(=O)O)C(=O)N[C@@H](CC(N)=O)C(=O)N[C@@H]([C@@H](C)O)C(=O)N[C@@H](C)C(=O)N[C@@H]([C@@H](C)O)C(=O)N1)[C@@H](C)O)C(=O)N1CCC[C@H]1C(=O)N[C@@H](CO)C(=O)N[C@@H](CO)C(=O)N[C@H](C(=O)N[C@@H](CC(N)=O)C(=O)N[C@H](C(=O)NCC(=O)N[C@@H](CO)C(=O)N[C@@H](CCCNC(=N)N)C(=O)N[C@H](C(=O)N[C@@H](Cc1ccc(O)cc1)C(N)=O)[C@@H](C)O)C(C)C)[C@@H](C)O
B5: N^ε1-[(4S)-4-carboxy-4-[[(4S)-4-carboxy-4-(19-carboxynonadecanoylamino)butanoyl]amino]butanoyl]-[Glu14,Arg17,Pro21,Pro27,Pro34,Arg35]-h-amylin (peptide)
peptide: K([γGlu-γGlu-C20 diacid])CNTATCATQRLAEFLRHSSPNFGAIPSSTNVGPRTY-NH2
modifications: disulfide 2-7; N-terminus assumed
SMILES: CC[C@H](C)[C@H](NC(=O)[C@H](C)NC(=O)CNC(=O)[C@H](Cc1ccccc1)NC(=O)[C@H](CC(N)=O)NC(=O)[C@@H]1CCCN1C(=O)[C@H](CO)NC(=O)[C@H](CO)NC(=O)[C@H](Cc1c[nH]cn1)NC(=O)[C@H](CCCNC(=N)N)NC(=O)[C@H](CC(C)C)NC(=O)[C@H](Cc1ccccc1)NC(=O)[C@H](CCC(=O)O)NC(=O)[C@H](C)NC(=O)[C@H](CC(C)C)NC(=O)[C@H](CCCNC(=N)N)NC(=O)[C@H](CCC(N)=O)NC(=O)[C@@H](NC(=O)[C@H](C)NC(=O)[C@@H]1CSSC[C@H](NC(=O)[C@@H](N)CCCCNC(=O)CC[C@H](NC(=O)CC[C@H](NC(=O)CCCCCCCCCCCCCCCCCCC(=O)O)C(=O)O)C(=O)O)C(=O)N[C@@H](CC(N)=O)C(=O)N[C@@H]([C@@H](C)O)C(=O)N[C@@H](C)C(=O)N[C@@H]([C@@H](C)O)C(=O)N1)[C@@H](C)O)C(=O)N1CCC[C@H]1C(=O)N[C@@H](CO)C(=O)N[C@@H](CO)C(=O)N[C@H](C(=O)N[C@@H](CC(N)=O)C(=O)N[C@H](C(=O)NCC(=O)N1CCC[C@H]1C(=O)N[C@@H](CCCNC(=N)N)C(=O)N[C@H](C(=O)N[C@@H](Cc1ccc(O)cc1)C(N)=O)[C@@H](C)O)C(C)C)[C@@H](C)O
notes: also called compound 110
B6: N^ε1-[(4S)-4-carboxy-4-[[(4S)-4-carboxy-4-(19-carboxynonadecanoylamino)butanoyl]amino]butanoyl]-[Arg17,Pro21,Pro27,Pro31,Pro34,Arg35]-h-amylin (peptide)
peptide: K([γGlu-γGlu-C20 diacid])CNTATCATQRLANFLRHSSPNFGAIPSSTPVGPRTY-NH2
modifications: disulfide 2-7; N-terminus assumed
SMILES: CC[C@H](C)[C@H](NC(=O)[C@H](C)NC(=O)CNC(=O)[C@H](Cc1ccccc1)NC(=O)[C@H](CC(N)=O)NC(=O)[C@@H]1CCCN1C(=O)[C@H](CO)NC(=O)[C@H](CO)NC(=O)[C@H](Cc1c[nH]cn1)NC(=O)[C@H](CCCNC(=N)N)NC(=O)[C@H](CC(C)C)NC(=O)[C@H](Cc1ccccc1)NC(=O)[C@H](CC(N)=O)NC(=O)[C@H](C)NC(=O)[C@H](CC(C)C)NC(=O)[C@H](CCCNC(=N)N)NC(=O)[C@H](CCC(N)=O)NC(=O)[C@@H](NC(=O)[C@H](C)NC(=O)[C@@H]1CSSC[C@H](NC(=O)[C@@H](N)CCCCNC(=O)CC[C@H](NC(=O)CC[C@H](NC(=O)CCCCCCCCCCCCCCCCCCC(=O)O)C(=O)O)C(=O)O)C(=O)N[C@@H](CC(N)=O)C(=O)N[C@@H]([C@@H](C)O)C(=O)N[C@@H](C)C(=O)N[C@@H]([C@@H](C)O)C(=O)N1)[C@@H](C)O)C(=O)N1CCC[C@H]1C(=O)N[C@@H](CO)C(=O)N[C@@H](CO)C(=O)N[C@H](C(=O)N1CCC[C@H]1C(=O)N[C@H](C(=O)NCC(=O)N1CCC[C@H]1C(=O)N[C@@H](CCCNC(=N)N)C(=O)N[C@H](C(=O)N[C@@H](Cc1ccc(O)cc1)C(N)=O)[C@@H](C)O)C(C)C)[C@@H](C)O

These binders were tested against T1, human calcitonin receptor (assay: cell-based or functional assay).

Row | Binder | Ratio hCT/hAmylin funct. | hCTR funct. EC50 (pM)
1 | B1 | 24.9 ratio | 3640 pM
2 | B2 | 44.9 ratio | 7280 pM
3 | B3 | 17 ratio | 6380 pM
4 | B4 | – | 100000 pM
5 | B5 | 29.3 ratio | 8160 pM
6 | B6 | 26 ratio | 8660 pM

Each binder was assayed against T2, human amylin receptor (amylin 3(a) …) (assay: SPA competition binding on membranes of BHK cells with human calcitonin receptor + RAMP-3; displacement of 125I-rat amylin (Assay V)).
Procedure, shortened: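 One-site competition analysis of SPA counts yielded IC₅₀ as a measure of affinity. Membranes were at 35 ng/μL final; incubation was 120 min at 25° C, pH 7.4.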

Row | Binder | IC50
7 | B1 | 0.281 nM
8 | B2 | 0.453 nM
9 | B3 | 0.163 nM
10 | B4 | 0.365 nM
11 | B5 | 0.326 nM
12 | B6 | 0.88 nM
